# Results published in US20230201308A1, “TREATMENT OF CORONAVIRUS INFECTION WITH […]” (Eiger Biopharmaceuticals, Inc., priority 2020, published 2023).
# B1: pegylated interferon lambda-1a (protein)
# chain: MKPTTTGKGCHIGRFKSLSPQELASFKKARDALEESLKLKNWSCSSPVFPGNWDLRLLQVRERPVALEAELALTLKVLEAAAGPALEDVLDQPLHTLHHILSQLQACIQPQPTAGPRPRGRLHHWLHRLQEAPKKESAGCLEASVTFNLFRLLTRDLKYVADGNLSLRTSTHPEST
# modifications: PEG
# notes: 180 mcg subcutaneous injection
# Test system: SARS-CoV-2
# Assay: First trial: single 180 mcg dose vs placebo in 120 participants with COVID-19
# Assay type: in vivo, human
# Protocol: Using the methods and criteria described above in Examples 1-3, a first trial was performed. In the first trial, 120 participants were enrolled; 70 (58.3%) were male, 75 (62.5%) identified as Latinx, and the median duration of symptoms prior to randomization was 5 days. Sixty participants were randomly assigned to receive 180 mcg pegylated interferon lambda-1a, and 60 participants were assigned to receive a placebo. […] Subjects viral samples were taken by oral pharyngeal swabs. The median time to cessation of viral shedding was 7 days in both arms (hazard ratio [HR] for duration of shedding 0.81 comparing Lambda vs. placebo; 95% confidence interval [CI] 0.56 to 1.19; p=0.29). No difference in time to resolution of symptoms was observed comparing interferon lambda vs. placebo (HR 0.94; 95% CI 0.64 to 1.39; p=0.76). Two serious adverse events were reported in each arm. Liver transaminase elevations were more common in the interferon lambda vs. placebo arm (15/60 vs 5/60; p=0.027).
molecule,measurement,setting,value
B1,shedding cessation relative to placebo,seronegative at baseline,delayed shedding cessation relative to placebo
same,shedding cessation relative to placebo,seropositive at baseline,appeared to hasten shedding cessation
same,effect on duration of viral shedding and symptoms compared to placebo,single 180 mcg s.c.,neither shortened the duration of SARS-CoV-2 viral shedding nor improved symptoms
same,hazard ratio for duration of shedding vs. placebo,single 180 mcg s.c.,0.81
same,"hazard ratio, time to resolution of symptoms vs. placebo",single 180 mcg s.c.,0.94
same,liver transaminase elevations (participants of arm),single 180 mcg s.c.,15/60
same,serious adverse events reported in the arm,single 180 mcg s.c.,Two
same,tolerability,single 180 mcg s.c.,well tolerated
same,median time to cessation of viral shedding,"single 180 mcg s.c., n=60",7 days
